Experimental data from patent US20070281327A1 (published 2007).

What was measured:
[1] = molecular target: T1, Human Mpl-IgG Fc fusion protein (hMpl-Fc) (human, UniProt P40238 26-491); assay: ELISA on plates coated with hMpl-Fc, diabody detected by anti-FLAG M2
T1 construct: range 26-491; Expressed in CHO-DG44 cells with a 19-amino acid signal peptide from a human IgG H chain variable region, which is not part of the mature protein; No numbering scheme is named for Asp 216; also called shMPL-Fc; not shown: Fc region of human IgG-gamma1, a region downstream of Asp 216
T1 sequence: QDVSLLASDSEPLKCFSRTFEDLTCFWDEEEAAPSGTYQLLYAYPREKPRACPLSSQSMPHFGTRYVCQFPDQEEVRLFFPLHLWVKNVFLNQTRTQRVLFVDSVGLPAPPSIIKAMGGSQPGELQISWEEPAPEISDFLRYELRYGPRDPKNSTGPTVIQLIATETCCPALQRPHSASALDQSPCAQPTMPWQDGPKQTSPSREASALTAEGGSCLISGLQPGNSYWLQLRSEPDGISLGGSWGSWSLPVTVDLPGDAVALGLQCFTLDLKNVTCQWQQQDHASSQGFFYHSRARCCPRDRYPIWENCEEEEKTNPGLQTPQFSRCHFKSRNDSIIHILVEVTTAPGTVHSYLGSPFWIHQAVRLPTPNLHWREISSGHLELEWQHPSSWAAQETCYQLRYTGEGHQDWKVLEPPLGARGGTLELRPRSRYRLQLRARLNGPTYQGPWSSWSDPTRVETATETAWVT
Description: (§1) The binding activity of anti-human Mpl single-chain antibody to hMPL-Fc was assessed using ELISA. After plates were coated with 0.5 μg/ml purified hMPL-Fc, blocking treatment was carried out using Diluent buffer. A purified product of VA130 was diluted to an appropriate concentration and added to the plates. Then, the plates were allowed to stand at room temperature for one hour. After washing with Rinse buffer, 1000-times-diluted ANTI-FLAG M2 Monoclonal Antibody (SIGMA-ALDRICH) was added. The plates were incubated at room temperature for one hour. Next, after washing with Rinse buffer, 1000-times-diluted Alkaline Phosphatase-labeled anti-mouse IgG antibody (Zymed) was added, and the plates were allowed to stand at room temperature for one hour. After washing with Rinse buffer, color development was achieved using SIGMA104 (SIGMA-ALDRICH) diluted to 1 mg/ml in substrate buffer. Color was developed for 15 minutes at room temperature and then absorbance was determined at 405 nm with Benchmark Plus.

[2] = molecular target: human Mpl expressed on BaF3 cells (BaF3-human Mpl) (human) (UniProt P40238); assay: cell-based or functional assay
[3] = molecular target: T1, Human Mpl-IgG Fc fusion protein …; assay: ELISA on plates coated with hMpl-Fc, sc(Fv)2 detected by anti-FLAG M2
Description: as §1

[4] = molecular target: T1, Human Mpl-IgG Fc fusion protein …; assay: ELISA on plates coated with hMpl-Fc, IgG
[5] = molecular target: T2, human Mpl expressed on BaF3 cells (BaF3-human Mpl) (human, UniProt P40238 26-635); assay: cell-based or functional assay
T2 sequence (looked up): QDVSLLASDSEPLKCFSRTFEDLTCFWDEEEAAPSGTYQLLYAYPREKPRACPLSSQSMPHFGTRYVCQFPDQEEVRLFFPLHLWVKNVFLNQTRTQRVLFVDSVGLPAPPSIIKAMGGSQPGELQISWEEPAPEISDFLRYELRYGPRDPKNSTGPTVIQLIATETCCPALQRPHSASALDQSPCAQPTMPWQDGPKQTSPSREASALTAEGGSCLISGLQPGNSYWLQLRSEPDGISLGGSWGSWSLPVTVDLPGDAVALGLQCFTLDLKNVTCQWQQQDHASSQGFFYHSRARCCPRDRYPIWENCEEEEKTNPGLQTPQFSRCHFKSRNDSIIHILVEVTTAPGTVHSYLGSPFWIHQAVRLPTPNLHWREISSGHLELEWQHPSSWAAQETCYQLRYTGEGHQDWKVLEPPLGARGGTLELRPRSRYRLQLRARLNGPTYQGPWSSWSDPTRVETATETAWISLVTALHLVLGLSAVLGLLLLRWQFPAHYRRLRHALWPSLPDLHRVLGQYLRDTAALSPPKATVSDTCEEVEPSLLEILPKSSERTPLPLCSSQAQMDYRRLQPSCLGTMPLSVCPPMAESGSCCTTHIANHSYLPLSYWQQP

B1: VA130 diabody (VA130 single-chain Fv with a five-amino acid (Gly4Ser)1 linker, FLAG-tagged) (scFv)
scFv: QVQLQQSGPELVKPGASVKISCKASGYAFSSSWMNWVKQRPGKGLEWIGRIYPGDGDTNYNGKFKGKATLTADKSSSTAYIQLSSLTSEDSAVYFCARGYADYSFAYWGQGTLVTVSAGGGGSDIVMTQAAPSVPVTPGESVSISCRSSKSLLHSNGNTYLYWFLQRPGQSPQLLIYRMSNLASGVPDRFSGSGSGTAFTLRISRVEAEDVGVYYCMQHLEYPYTFGSGTKLEIKDYKDDDDK
notes: The order is VH-(Gly4Ser)1-VL-FLAG; also called VA130 db
Q: For B1, which EC50 [1] is on record?
A: 110 pM

Q: And the Agonistic activity, Analysis using Baf-hMpl (EC50) [2]?
A: 222 pM

B2: VA130 sc(Fv)2 (other)
chain: QVQLQQSGPELVKPGASVKISCKASGYAFSSSWMNWVKQRPGKGLEWIGRIYPGDGDTNYNGKFKGKATLTADKSSSTAYIQLSSLTSEDSAVYFCARGYADYSFAYWGQGTLVTVSAGGGGSGGGGSGGGGSDIVMTQAAPSVPVTPGESVSISCRSSKSLLHSNGNTYLYWFLQRPGQSPQLLIYRMSNLASGVPDRFSGSGSGTAFTLRISRVEAEDVGVYYCMQHLEYPYTFGSGTKLEIKGGGGSGGGGSGGGGSQVQLQQSGPELVKPGASVKISCKASGYAFSSSWMNWVKQRPGKGLEWIGRIYPGDGDTNYNGKFKGKATLTADKSSSTAYIQLSSLTSEDSAVYFCARGYADYSFAYWGQGTLVTVSAGGGGSGGGGSGGGGSDIVMTQAAPSVPVTPGESVSISCRSSKSLLHSNGNTYLYWFLQRPGQSPQLLIYRMSNLASGVPDRFSGSGSGTAFTLRISRVEAEDVGVYYCMQHLEYPYTFGSGTKLEIKDYKDDDDK
notes: A single polypeptide with two VH and two VL units from VA130; also called anti-human Mpl antibody sc(Fv)2; VA130 single-chain antibody
Q: Which results are given for B2?
A: EC50 [3]: 270 pM; Agonistic activity, Analysis using Baf-hMpl (EC50) [2]: 1020 pM

B3: VA130 IgG (mouse monoclonal anti-human Mpl antibody VA130) (antibody, V domains shown)
VH: QVQLQQSGPELVKPGASVKISCKASGYAFSSSWMNWVKQRPGKGLEWIGRIYPGDGDTNYNGKFKGKATLTADKSSSTAYIQLSSLTSEDSAVYFCARGYADYSFAYWGQGTLVTVSA
VL: DIVMTQAAPSVPVTPGESVSISCRSSKSLLHSNGNTYLYWFLQRPGQSPQLLIYRMSNLASGVPDRFSGSGSGTAFTLRISRVEAEDVGVYYCMQHLEYPYTFGSGTKLEIK
notes: Whole mouse IgG from a hybridoma; also called VA130 antibody; VA130 anti-human Mpl antibody
Q: Which results are given for B3?
A: EC50 [4]: 380 pM; TPO-like agonist activity, BaF3-human Mpl proliferation (WST-8), EC50 [5]: > 100000 pM

B4: VB16 IgG (mouse monoclonal anti-human Mpl antibody VB16) (antibody, V domains shown)
VH: QVQLQQPGTELVRPGASVKLSCKASGYTFTDYWVNWVKQRPGRGLEWIGRIHPYDSETHYNQKFKNKATLTVDKSSSTAYIQLSSLTSEDSAVYYCASGGWFASWGQGTLVTVSA
VL: DIVMTQAAPSVPVTPGESVSISCRSSKSLLYSNGNTYLYWFLQRPGQSPQLLIYRMSNLASGVPDRFSGSGSGTAFTLTISSVEAEDVGVYYCMQHLEYPYTFGSGTKLEIK
Q: For B4, which EC50 [4] is on record?
A: 150 pM
